Data as given in PMC4980022.
Where “and” joins values, the source holds several entries; their conditions need not be identical. Identical values can stand only once.

Columns and labels:
[1] = molecular target: PorK lipoprotein (Porphyromonas gingivalis W50 (endogenous in W50ABK*WbaP)); assay: negative-stain electron microscopy and electron tomography; purified PorK/N complex (fraction 6 of the CsCl gradient) stained with uranyl acetate
[2] = molecular target: PorN (Porphyromonas gingivalis W50 (endogenous in W50ABK*WbaP)); assay: as above
[3] = molecular target: PorK lipoprotein (Porphyromonas gingivalis W50 (endogenous in W50ABK*WbaP)); assay: high sensitivity amino acid analysis of the bands; purified PorK/N complex separated on SDS-PAGE, transferred to PVDF, PorK and PorN bands excised
[4] = molecular target: PorK lipoprotein (Porphyromonas gingivalis W50 (endogenous in W50ABK*WbaP)); assay: densitometry of Coomassie stained gels; purified PorK/N complex on SDS-PAGE; PorK band against the combined PorN bands

Substance | stoichiometry N [1] | stoichiometry N [2] | stoichiometry N (PorN per PorK) [3] | stoichiometry N (PorN per PorK) [4]
PorK lipoprotein (natural protein) | 32 to 36 subunits | – | – | –
PorN (natural protein) | – | 32 to 36 subunits | 1.2 | 1 and 1.2
